Data on 1 molecule can be found in patent publication US10314894B2, “Treatment of cardio-renal disease using PCSK6” (THE CLEVELAND CLINIC FOUNDATION, priority 2014, dated 2019).

One test has as its target T1, corin variant T555I (Homo sapiens, UniProt Q9Y5Q5, T555I).
T1 construct: expressed in transfected cells; host or cells: HEK293
T1 sequence (Q9Y5Q5 1-1042 T555I): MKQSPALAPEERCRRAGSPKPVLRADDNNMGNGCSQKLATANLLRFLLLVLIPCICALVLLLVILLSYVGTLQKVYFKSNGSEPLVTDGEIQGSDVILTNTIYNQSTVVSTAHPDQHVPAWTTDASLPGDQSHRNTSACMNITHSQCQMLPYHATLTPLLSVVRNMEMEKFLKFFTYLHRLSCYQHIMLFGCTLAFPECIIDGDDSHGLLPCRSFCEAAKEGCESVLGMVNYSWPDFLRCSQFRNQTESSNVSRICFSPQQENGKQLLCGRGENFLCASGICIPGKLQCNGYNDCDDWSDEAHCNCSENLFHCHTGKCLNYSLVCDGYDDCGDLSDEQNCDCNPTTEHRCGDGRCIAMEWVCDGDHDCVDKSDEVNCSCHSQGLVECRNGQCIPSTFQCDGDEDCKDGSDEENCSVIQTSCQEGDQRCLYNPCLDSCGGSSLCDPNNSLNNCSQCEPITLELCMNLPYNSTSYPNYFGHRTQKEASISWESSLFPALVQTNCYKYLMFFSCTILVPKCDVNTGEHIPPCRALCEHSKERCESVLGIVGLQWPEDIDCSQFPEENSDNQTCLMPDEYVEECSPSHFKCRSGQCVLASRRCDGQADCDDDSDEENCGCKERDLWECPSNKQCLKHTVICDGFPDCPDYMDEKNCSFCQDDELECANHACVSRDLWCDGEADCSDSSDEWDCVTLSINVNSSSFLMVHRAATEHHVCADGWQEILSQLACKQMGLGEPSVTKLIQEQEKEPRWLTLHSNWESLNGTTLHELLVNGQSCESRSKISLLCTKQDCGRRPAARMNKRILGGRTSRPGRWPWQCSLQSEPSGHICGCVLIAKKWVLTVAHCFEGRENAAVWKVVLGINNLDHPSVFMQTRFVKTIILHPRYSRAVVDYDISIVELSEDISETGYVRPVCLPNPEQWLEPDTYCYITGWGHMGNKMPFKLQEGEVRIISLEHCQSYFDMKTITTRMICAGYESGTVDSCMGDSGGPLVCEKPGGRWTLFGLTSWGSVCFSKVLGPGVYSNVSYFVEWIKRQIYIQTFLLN
The test is described as follows: PCSK6-mediated corin activation in HEK293 cells, corin variant T555I. It is filed as cell-based. As to conditions: Western. The source says: (§1) Plasmids expressing human corin WT and mutants R801A, S985A, T555I, Q568P, T555I/Q568P, K317E, S472G and R539C were reported previously. Dong, N. et al., J Biol Chem 289, 17909-17916 (2014); Knappe et al., J Biol Chem 278, 52363-52370 (2003); Wu et al., J Biol Chem 277, 16900-16905. (2002). Plasmids expressing human PCSK1-9 were made by cloning respective cDNAs into pcNDA3.1 vector. Recombinant corin and PCSK proteins encoded by these plasmids contained a C-terminal V5 or flag tag for protein detection in Western blotting.
(§2) HEK293 and HL-1 cells were transfected with corin or PCSK6 expression plasmids. After 48-72 h, cells were lysed in a buffer containing 25 mM Tris-HCl, pH 7.4, 150 mM NaCl, 1 mM EDTA, 1% (v/v) NP-40, and 1% (v/v) protease inhibitor cocktail. Recombinant corin and PCSK6 proteins were immunoprecipitated with an anti-V5 or anti-flag antibody. Western blotting was carried out to analyze corin expression and activation or PCSK6 expression with or without reducing agents. Percentage of corin activation (corin-p vs. corin fragments) was quantified by densitometric analysis of Western blots.

Another test concerns the target T2, corin mutant S472G (Homo sapiens, UniProt Q9Y5Q5, S472G).
T2 construct: expressed in transfected cells; host or cells: HEK293
T2 sequence (Q9Y5Q5 1-1042 S472G): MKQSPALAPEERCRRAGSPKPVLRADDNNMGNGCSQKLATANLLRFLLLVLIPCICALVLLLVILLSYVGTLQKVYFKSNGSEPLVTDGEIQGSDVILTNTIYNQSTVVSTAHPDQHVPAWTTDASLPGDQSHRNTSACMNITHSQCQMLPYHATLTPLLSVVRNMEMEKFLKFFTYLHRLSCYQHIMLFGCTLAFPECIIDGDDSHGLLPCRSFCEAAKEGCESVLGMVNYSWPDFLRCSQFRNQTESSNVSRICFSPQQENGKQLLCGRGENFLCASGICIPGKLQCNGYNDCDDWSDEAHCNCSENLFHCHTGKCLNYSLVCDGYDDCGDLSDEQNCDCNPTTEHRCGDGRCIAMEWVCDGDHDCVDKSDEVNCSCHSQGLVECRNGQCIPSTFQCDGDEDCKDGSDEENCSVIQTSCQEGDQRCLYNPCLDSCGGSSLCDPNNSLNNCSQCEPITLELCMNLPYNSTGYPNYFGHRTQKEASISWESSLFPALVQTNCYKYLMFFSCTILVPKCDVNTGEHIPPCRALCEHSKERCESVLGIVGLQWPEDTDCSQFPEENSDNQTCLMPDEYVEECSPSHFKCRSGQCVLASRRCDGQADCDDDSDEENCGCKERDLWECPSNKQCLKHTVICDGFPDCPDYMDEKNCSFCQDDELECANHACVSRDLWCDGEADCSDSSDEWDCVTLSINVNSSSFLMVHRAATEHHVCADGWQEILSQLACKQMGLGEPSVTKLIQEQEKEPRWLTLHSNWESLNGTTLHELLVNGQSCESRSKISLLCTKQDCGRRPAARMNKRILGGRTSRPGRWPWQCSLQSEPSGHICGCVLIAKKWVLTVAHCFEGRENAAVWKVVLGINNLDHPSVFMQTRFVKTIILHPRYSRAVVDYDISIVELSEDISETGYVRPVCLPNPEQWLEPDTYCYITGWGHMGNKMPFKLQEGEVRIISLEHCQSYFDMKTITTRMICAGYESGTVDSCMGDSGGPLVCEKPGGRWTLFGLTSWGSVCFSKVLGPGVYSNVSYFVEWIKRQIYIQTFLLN
The test can be described thus: PCSK6-mediated corin activation in HEK293 cells, corin mutant S472G. It is filed as cell-based. As to conditions: Western, densitometry.
Description: as §1, §2

B1: proprotein convertase subtilisin/kexin-6 (protein, listed as Homo sapiens)
chain: MPPRAPPAPGPRPPPRAAAATDTAAGAGGAGGAGGAGGPGFRPLAPRPWRWLLLLALPAACSAPPPRPVYTNHWAVQVLGGPAEADRVAAAHGYLNLGQIGNLEDYYHFYHSKTFKRSTLSSRGPHTFLRMDPQVKWLQQQEVKRRVKRQVRSDPQALYFNDPIWSNMWYLHCGDKNSRCRSEMNVQAAWKRGYTGKNVVVTILDDGIERNHPDLAPNYDSYASYDVNGNDYDPSPRYDASNENKHGTRCAGEVAASANNSYCIVGIAYNAKIGGIRMLDGDVTDVVEAKSLGIRPNYIDIYSASWGPDDDGKTVDGPGRLAKQAFEYGIKKGRQGLGSIFVWASGNGGREGDYCSCDGYTNSIYTISVSSATENGYKPWYLEECASTLATTYSSGAFYERKIVTTDLRQRCTDGHTGTSVSAPMVAGIIALALEANSQLTWRDVQHLLVKTSRPAHLKASDWKVNGAGHKVSHFYGFGLVDAEALVVEAKKWTAVPSQHMCVAASDKRPRSIPLVQVLRTTALTSACAEHSDQRVVYLEHVVVRTSISHPRRGDLQIYLVSPSGTKSQLLAKRLLDLSNEGFTNWEFMTVHCWGEKAEGQWTLEIQDLPSQVRNPEKQGKLKEWSLILYGTAEHPYHTFSAHQSRSRMLELSAPELEPPKAALSPSQVEVPEDEEDYTAQSTPGSANILQTSVCHPECGDKGCDGPNADQCLNCVHFSLGSVKTSRKCVSVCPLGYFGDTAARRCRRCHKGCETCSSRAATQCLSCRRGFYHHQEMNTCVTLCPAGFYADESQKNCLKCHPSCKKCVDEPEKCTVCKEGFSLARGSCIPDCEPGTYFDSELIRCGECHHTCGTCVGPGREECIHCAKNFHFHDWKCVPACGEGFYPEEMPGLPHKVCRRCDENCLSCAGSSRNCSRCKTGFTQLGTSCITNHTCSNADETFCEMVKSNRLCERKLFIQFCCRTCLLAG
modifications: C-terminal FLAG tag
For the molecule B1, the PCSK6-mediated activation cleavage entry in the test with corin variant T555I is listed as “detected”. For the same molecule, in the test with corin mutant S472G, the “reduction in PCSK6-mediated corin activation compared with WT corin” value is listed as 99%.
